Measurements: US20090291081A1 (AbbVie / Abbott, published 2009)
Where a chain is given by its changes, count along the chain named.

B1: ABT1-141-43 (other)
VL: DIQMTQSPSSLSASVGDRVTITCRASQWIQKQLAWYQQKPGKAPKLLIYSSSYLQSGVPPRFSGSGSGTDFTLTISSLQPEDFATYYCQQHLRVPMTFGQGTKVEIKR
notes: VK dAb
B2: ABT1-6-15 (other)
VH: EVQLLESGGGLVQPGGSLRLSCAASGFTFVRYDMAWVRQAPGKGLEWVSSINKSGALTSYADSVKGRFTISRDNSKNTLYLQMNSLRAEDTAVYYCAKGWASFDYWGQGTLVTVSS
notes: VH dAb
B3: ABT1-6-3 (other)
VH: B2 VH with V30G, R31A, A35Q, N52Y
notes: VH dAb
B4: ABT1-6 (other)
VH: B2 VH with V30G, R31A, A35Q
notes: VH dAb
B5: ABT1-93 (other)
VH: EVQLLESGGGLVQPGGSLRLSCAASGFTFNEYNMVWVRQAPGKGLEWVSSISGGGGFTYYADSVKGRFTISRDNSKNTLYLQMNSLRAEDTAVYYCAKPLRGFVCSQHCSFDYWGQGTLVTVSS
notes: VH dAb
B6: ABT1-122-18 (other)
VL: DIQMTQSPSSLSASVGDRVTITCRASQPIWTELNWYQQKPGKAPKLLVYGSSSLQSGVPSRFSGSGSGTDFTLTISSLQPEDFATYYCQQFAYFPATFGQGTKVEIKR
notes: VK dAb
B7: ABT1-122-511 (other)
VL: B6 VL with V48I, S56R, Q89K
notes: VK dAb
B8: ABT1-122-21 (other)
VL: B6 VL with V48I, S60T
notes: VK dAb
B9: ABT1-92 (other)
VH: EVQLLESGGGLVQPGGSLRLSCAASGFTFSTYTMTWVRQAPGKGLEWVSTIFPGGSTTYYADSVKGRFTISRDNSKNTLYLQMNSLRAEDTAVYYCAKYVDFVKLSFDYWGQRTLVTVSS
notes: VH dAb
B10: ABT1-95-21 (other)
VL: DIQMTQSPSSLSASVGDRVTITCRASQPIVRNLRWYQQKPGKAPKLLIYSSSYLEPGVPSRFSGSGSGTDFTLTISSLQPEDFATYYCQQGYRWPVTFGQGTKVEIKR
notes: VK dAb
B11: ABT1-95-25 (other)
VL: B10 VL with Q89D
notes: VK dAb
B12: ABT1-95-107 (other)
VL: B10 VL with P56H, Y87H
notes: VK dAb
B13: ABT1-95-80 (other)
VL: B10 VL with S51V, Y87H
notes: VK dAb
B14: ABT1-95-67 (other)
VL: B10 VL with S50A, Y87H
notes: VK dAb
B15: ABT1-95-118 (other)
VL: B10 VL with Y87H, Q89S
notes: VK dAb
B16: ABT1-95-41 (other)
VL: B10 VL with Q27Y, Y87H
notes: VK dAb
B17: ABT1-163 (other)
VL: DIQMTQSPSSLSASVGDRVTITCRASGNIVHNLRWYQQKPGKAPKLLIYAASRLQSGVPSRFSGSGSGTDFTLTISSLQPEDFATYYCAQGYEWPLTFGQGTKVEIKQ
notes: VK dAb
B18: ABT1-95-33 (other)
VL: B10 VL with Q89R
notes: VK dAb
B19: ABT1-95-27 (other)
VL: B10 VL with G41R, Q89A
notes: VK dAb
B20: ABT1-95-92 (other)
VL: B10 VL with Y53T, Y87H
notes: VK dAb
B21: ABT1-95-161 (other)
VL: B10 VL with Y87H, V96P
notes: VK dAb
B22: ABT1-95-22 (other)
VL: B10 VL with R93H
notes: VK dAb
B23: ABT1-95-117 (other)
VL: B10 VL with T85M, Y87H, Q89V
notes: VK dAb
B24: ABT1-95-23 (other)
VL: B10 VL with I29T
notes: VK dAb
B25: ABT1-95-47 (other)
VL: B10 VL with Q27M, Y87H
notes: VK dAb
B26: ABT1-95-64 (other)
VL: B10 VL with I48V, Y49H, Y87H, I106V
notes: VK dAb
B27: ABT1-95-85 (other)
VL: B10 VL with S26G, S51G, Y87H, Q89L
notes: VK dAb
B28: ABT1-95-115 (other)
VL: B10 VL with Y87H, Q89L
notes: VK dAb
B29: ABT1-95-26 (other)
VL: B10 VL with Q89G
notes: VK dAb
B30: ABT1-95-32 (other)
VL: B10 VL with R93S
notes: VK dAb
B31: ABT1-164 (other)
VL: DIQMTQSPSSLSASVGDRVTITCRASRPIAGNLRWYQQKPGKAPKLLIWGASSLQSGVPSRFSGSGSGTDFTLTISSLQPEDFATYYCVQGWQWPITFGQGTKVEIKR
notes: VK dAb
B32: ABT1-95-160 (other)
VL: B10 VL with Y87H, R93V
notes: VK dAb
B33: ABT1-95-121 (other)
VL: B10 VL with Y87H, R93E
notes: VK dAb
B34: ABT1-95-132 (other)
VL: B10 VL with K42I, L78P, Y87H
notes: VK dAb
B35: ABT1-95-34 (other)
VL: B10 VL with Q27A, Y87H
notes: VK dAb
B36: ABT1-95-24 (other)
VL: B10 VL with Q89C
notes: VK dAb
B37: ABT1-95-44 (other)
VL: B10 VL with Q27S, Y87H
notes: VK dAb
B38: ABT1-95-28 (other)
VL: B10 VL with R93G
notes: VK dAb
B39: ABT1-95-139 (other)
VL: B10 VL with P28Q, Y87H
notes: VK dAb
B40: ABT1-95-31 (other)
VL: B10 VL with R93L
notes: VK dAb
B41: ABT1-95-102 (other)
VL: B10 VL with E55Q, Y87H
notes: VK dAb
B42: ABT1-95-148 (other)
VL: B10 VL with P28T, Y87H
notes: VK dAb
B43: ABT1-95-30 (other)
VL: B10 VL with G91S
notes: VK dAb
B44: ABT1-95-149 (other)
VL: B10 VL with P28A, Y87H
notes: VK dAb
B45: ABT1-95-116 (other)
VL: B10 VL with Y87H, Q89V
notes: VK dAb
B46: ABT1-95-131 (other)
VL: B10 VL with I29T, Y87H
notes: VK dAb
B47: ABT1-95-122 (other)
VL: B10 VL with T72I, Y87H
notes: VK dAb
B48: ABT1-95-29 (other)
VL: B10 VL with R93Q
notes: VK dAb

Columns and labels:
human IL-1α [1] = biological target: T1, human IL-1α (human, UniProt P01583 113-271); assay: cell-based or functional assay
T1 sequence (looked up): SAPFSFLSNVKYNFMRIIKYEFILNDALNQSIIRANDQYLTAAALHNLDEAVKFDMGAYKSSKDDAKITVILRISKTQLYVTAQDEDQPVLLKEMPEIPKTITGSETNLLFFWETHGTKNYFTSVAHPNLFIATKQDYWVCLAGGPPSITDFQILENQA

human IL-1α [2] = biological target: T1, human IL-1α; assay: Table 62 IC50; RBA presumed

Binder | ND50 (human IL-1α [1]) [nM] | IC50 (human IL-1α [2]) [nM]
B1 | 5 | 3
B2 | 500 | 200
B3 | 60 | 80
B4 | 3000 | 3000
B5 | 5000 | > 10000
B6 | 7 | 5
B7 | 18 | 10
B8 | 100 | 80
B9 | > 10000 | > 10000
B10 | 0.61 | 0.5
B11 | 0.43 | 0.5
B12 | 0.5 | 0.1
B13 | 0.008 | 0.3
B14 | 0.044 | 0.1
B15 | 0.122 | 0.2
B16 | 0.15 | < 0.1
B17 | 105 | 1000
B18 | 1 | 0.5
B19 | 1 | 0.5
B20 | 0.5 | < 0.1
B21 | 0.5 | 0.1
B22 | 1 | 0.5
B23 | 0.1 | 0.2
B24 | 0.5 | 0.5

Binder | ND50 (human IL-1α [1]) [nM] | IC50 (human IL-1α [2]) [nM]
B25 | 0.139 | 0.1
B26 | 0.438 | 3
B27 | 0.713 | 0.2
B28 | 0.23 | 0.2
B29 | 0.71 | 0.5
B30 | 1.2 | > 0.5
B31 | 14 | > 1000
B32 | 0.238 | 0.1
B33 | 0.1 | 0.2
B34 | 2 | 0.1
B35 | 1 | 0.1
B36 | 0.27 | 0.5
B37 | 0.15 | < 0.1
B38 | 2 | > 0.5
B39 | 0.1 | 0.2
B40 | 3.3 | > 0.5
B41 | 0.184 | 0.1
B42 | 0.19 | 0.2
B43 | > 10 | > 1
B44 | 0.064 | 0.2
B45 | 0.168 | 0.2
B46 | 0.085 | 0.1
B47 | 0.116 | 0.1
B48 | 1 | > 0.5
